± gives the standard deviation.

These results are taken from the supplement of paper PMC10567573.

A short description of this data set: protein stability index of a GFP-peptide fusion (GPS, HEK-293T) (PSI 1-6); higher = more stable. The following applies: c terminus: a fixed tail appended.
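Note: 24-mer peptide tiles fused after GFP, lentivirally expressed, FACS-sorted into six equal bins by GFP/DsRed ratio, decoded by Illumina sequencing, PSI is the read-weighted mean bin number.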

For PHIEEQQKKIESYLHNHFIGEGMT [TENT5D], the protein stability index was 3.35 ± 0.33 (treatment: DMSO) and 3.59 ± 0.27 (treatment: MLN4924 1 uM, 8 h).
PILKRKLPGSDVSGRLMGSPPVPG [FBXO28]: the protein stability index came out at 3.9 ± 0.3 (treatment: DMSO) and 4 ± 0.1 (treatment: MLN4924 1 uM, 8 h).
On to PKNREYDRFYVINYLVRLSFHNLK [ZNF277], for which the protein stability index is, setting by setting: (treatment: DMSO) 3.03 ± 1.2; (treatment: MLN4924 1 uM, 8 h) 2.29 ± 0.31.
With PLGTQVAVNAHQWLDNPERWNKVK [SEPHS2], the protein stability index (treatment: DMSO) amounted to 3.65 ± 0.084 and the protein stability index (treatment: MLN4924 1 uM, 8 h) was 3.61 ± 0.26.
Take PLIIAARNGHAKVVRLLLEHYRVQ [FEM1B]: the protein stability index is, setting by setting: (treatment: DMSO) 2.36 ± 0.36; (treatment: MLN4924 1 uM, 8 h) 2.39 ± 0.2.
For PLPEAIDPDVGVNSLQSYQLSPNK [PCDHGA10], in that order: 5.35 ± 0.26 and 5.25 ± 0.24.
The like results for PLPKRVAKVPRPPSTLLPTPEEQG [FOXJ1] were, in that order, 4.97 ± 0.29 and 4.82 ± 0.34.
As to PLPTDPMLGLALGGLVVSAASLAG [TSPAN10], the protein stability index is, setting by setting: (treatment: DMSO) 2.96 ± 0.63; (treatment: MLN4924 1 uM, 8 h) 2.65 ± 0.63.
For the sequence PLPVSADDTPEVLNRALSNLSSRW [CDS2], the protein stability index came out at 3.82 ± 0.17 (treatment: DMSO) and 3.83 ± 0.19 (treatment: MLN4924 1 uM, 8 h).
The like results for PLQGTDEDAVASADFSSMLSEEEK [TPD52L1] were, in that order, 5.48 ± 0.58 and 5.69 ± 0.094.
Consider PLRERARKLSQGILIIRFEMPYNI [YJU2B], for which the protein stability index was 2.9 ± 0.7 (treatment: DMSO) and 2.62 ± 0.39 (treatment: MLN4924 1 uM, 8 h).
The like results for PLTFDKNENMAAKKKSVAMHTNYL [GNB5] were, in that order, 3.33 ± 0.26 and 3.46 ± 0.26.
The like results for PMAEYNMPQYILREFKVTDARDGQ [PTPRD] were, in that order, 3.8 ± 0.24 and 3.75 ± 0.27.
With PNAFIGSDVVDWLYHNVEGFTDRR [DVL3], the protein stability index came out at 3.13 ± 0.26 (treatment: DMSO) and 3.15 ± 0.32 (treatment: MLN4924 1 uM, 8 h).
For PNLSLASEDEEEYESGYAFLPDLL [SMG5], in that order: 4.32 ± 0.2 and 4.47 ± 0.15.
As to PPVPCVPSVPCTPAPQVGTQIRTI [KRT36], the protein stability index (treatment: DMSO) stood at 4.46 ± 0.22 and the protein stability index (treatment: MLN4924 1 uM, 8 h) came out at 4.31 ± 0.2.
The like results for PQQAPQDDGSQDPEVLDRESRDRP [PWWP2B] were, in that order, 5.63 ± 0.29 and 5.47 ± 0.14.
On to PQVLSQEFTELLKVMIHPDPERRP [WEE1], for which the protein stability index (treatment: DMSO) worked out at 3.45 ± 0.17 and the protein stability index (treatment: MLN4924 1 uM, 8 h) was 3.43 ± 0.16.
The like results for PRCPRMVLSLKEGAREEDLDAVEA [FBXO3] were, in that order, 5.32 ± 0.36 and 5.27 ± 0.17.
For PRGKPPLNTRSQAPLLRWVLTLSF [HMOX1], in that order: 2.81 ± 0.28 and 3.1 ± 0.61.
As for PRGSETERLLTPNPGYGTQAGPSP [MCOLN1], the protein stability index is, setting by setting: (treatment: DMSO) 4.41 ± 0.18; (treatment: MLN4924 1 uM, 8 h) 4.79 ± 0.28.
For PRHPIRALVGDEVELPCRISPGKN [MOG], in that order: 4.62 ± 0.17 and 4.72 ± 0.21.
For PSDKMKWCLRVNPKGLDDESKDYL [SPOPL], in that order: 3.22 ± 0.34 and 3.81 ± 0.47.
For PSEHVQGKSPVNMVTVAMVAGQCE [ZNF649], in that order: 4.14 ± 0.34 and 4.26 ± 0.14.
PSFHPHAGGGSQENLDNDTETDSL [DVL3]: the protein stability index stood at 5.58 ± 0.31 (treatment: DMSO) and 5.5 ± 0.29 (treatment: MLN4924 1 uM, 8 h).
For PSLPAAGEQDCCGERVVINISGLR [KCNA3], in that order: 3.79 ± 0.36 and 3.76 ± 0.29.
Turning to PSSFPSSSSSSSSSCYPLIPSTPE [MAGEA10], the protein stability index reads like this: (treatment: DMSO) 4.32 ± 0.36; (treatment: MLN4924 1 uM, 8 h) 4.45 ± 0.13.
For PSSLSSSEGSSSSSSSSSSSSSSA [NFE2L1], in that order: 5.51 ± 0.22 and 5.47 ± 0.12.
The like results for PSTTERISTSGQAGTSSHGCWAWP [PXN] were, in that order, 3.04 ± 0.21 and 3.17 ± 0.23.
The like results for PTHTPRPADFSLGSLPGPGQTSGA [VENTX] were, in that order, 4.44 ± 0.18 and 4.5 ± 0.2.
As for PTQQDVLRTRVKTTGIVETHFTFK [GNAI1], the protein stability index is 3.05 ± 0.42 (treatment: DMSO) and 3.51 ± 0.37 (treatment: MLN4924 1 uM, 8 h).
The like results for PVSCCLGLLLESLVPFIVNDNITN [DYNC2LI1] were, in that order, 2.57 ± 0.94 and 2.79 ± 0.58.
The like results for PWLCGESFTLADVSLAVTLHRLKF [GDAP1] were, in that order, 2.65 ± 0.43 and 2.35 ± 0.41.
For PYGVYKKQQKDPSEEAAVLQYASL [ATE1], in that order: 3.62 ± 0.23 and 3.8 ± 0.5.
As for QAAKLLGSMEQVSSHFLEQTLDKK [INTS4], the protein stability index turned out to be 3.78 ± 0.12 (treatment: DMSO) and 3.88 ± 0.36 (treatment: MLN4924 1 uM, 8 h).
As for QALQHVQASCDEAHKMKFSDLFSL [INTS3], the protein stability index runs as follows: (treatment: DMSO) 2.86 ± 0.39; (treatment: MLN4924 1 uM, 8 h) 2.95 ± 0.33.
Turning to QASEREAPSIEQRLQEVRESIRRA [FCHSD1], the protein stability index runs as follows: (treatment: DMSO) 5.06 ± 0.35; (treatment: MLN4924 1 uM, 8 h) 5 ± 0.31.
For QCGETMKETVNVKTVCGYYTSAGT [GMCL1], in that order: 3.7 ± 0.22 and 3.77 ± 0.28.
For QDACQAQAREKELLELQSQQACTH [CCDC89], in that order: 4.91 ± 0.29 and 4.9 ± 0.2.
For QDEPRQGCQPEDRRRRIIINVGGI [KCNG1], the protein stability index runs as follows: (treatment: DMSO) 3.92 ± 0.33; (treatment: MLN4924 1 uM, 8 h) 4.02 ± 0.2.
Turning to QEEAIAQFPYVEFTGRDSITCLTC [TMEM106C], the protein stability index came out at 2.5 ± 0.21 (treatment: DMSO) and 2.57 ± 0.24 (treatment: MLN4924 1 uM, 8 h).
For QESYENVDSLESHIPSQEVPGTQV [ZNF263], in that order: 5.42 ± 0.22 and 5.28 ± 0.22.
For QGKLIKRQRLAKNDRGDHYHWKDL [EFHC1], in that order: 3.36 ± 0.48 and 3.71 ± 0.31.
For QGPPMVPPYQGGPPRPPMGMRPPV [ZNF207], the protein stability index is 4.31 ± 0.12 (treatment: DMSO) and 4.18 ± 0.081 (treatment: MLN4924 1 uM, 8 h).
As for QGSRGLTDQAIFYAVTPLPWCPHL [HDAC6], the protein stability index is, setting by setting: (treatment: DMSO) 2.64 ± 0.66; (treatment: MLN4924 1 uM, 8 h) 2.41 ± 0.46.
In the case of QHKDQTAALPLAAEETANLPPSPP [MAP2], the protein stability index came to 5.49 ± 0.086 (treatment: DMSO) and 5.45 ± 0.12 (treatment: MLN4924 1 uM, 8 h).
As to QIEYEYKLAQALHEMREQHDAQVR [LMNB1], the protein stability index reads like this: (treatment: DMSO) 3.83 ± 0.38; (treatment: MLN4924 1 uM, 8 h) 3.83 ± 0.34.
The like results for QIFFGRRKDMIAEKLAPSEITEEL [ZNF396] were, in that order, 3.85 ± 0.14 and 3.74 ± 0.13.
Regarding QIKAIRGSNEYTEGPSVVKRPAPR [SPRY1], the protein stability index stood at 4.05 ± 0.09 (treatment: DMSO) and 4.47 ± 0.3 (treatment: MLN4924 1 uM, 8 h).
As for QKILCAKAENARLVVNIDNAKLAS [KRT34], the protein stability index reads like this: (treatment: DMSO) 3.49 ± 0.2; (treatment: MLN4924 1 uM, 8 h) 3.56 ± 0.11.
For QLGTLAGSKYYNVEAMYCYLRCIQ [SMG5], in that order: 2.68 ± 0.29 and 2.3 ± 0.41.
As for QLKIAANPFAKGFRENGRNCKRER [TBX6], the protein stability index came out at 3.33 ± 0.25 (treatment: DMSO) and 3.47 ± 0.33 (treatment: MLN4924 1 uM, 8 h).
For QLQHEKAELEQHLEQEQEFQVNKL [CCDC6], the protein stability index worked out at 5.35 ± 0.19 (treatment: DMSO) and 5.41 ± 0.24 (treatment: MLN4924 1 uM, 8 h).
For QLSELRSEMECQNQEYKMLLDIKT [KRT13], in that order: 4.09 ± 0.12 and 4 ± 0.29.
With QMKQKVQSLYQEVFGRLRDENGRP [NFE2L1], the protein stability index amounted to 2.66 ± 0.35 (treatment: DMSO) and 3.65 ± 0.48 (treatment: MLN4924 1 uM, 8 h).
For QNIYKCIMLKNISQDERLDVLLTL [IQUB], in that order: 2.5 ± 0.098 and 2.61 ± 0.51.
Take QNSRNKRAVQGPEETVTQDCLQLI [TNFSF13B]: the protein stability index is, setting by setting: (treatment: DMSO) 4.55 ± 0.057; (treatment: MLN4924 1 uM, 8 h) 4.68 ± 0.12.
QPCNPPAPAGDKGFQPPSPSLRPR [DMRTC1]: the protein stability index (treatment: DMSO) is 5.27 ± 0.14 and the protein stability index (treatment: MLN4924 1 uM, 8 h) came out at 5.15 ± 0.19.
For QPKKPEDEPQETAYRTQVSSCCLH [PKD2L1], in that order: 4.88 ± 0.27 and 4.96 ± 0.05.
The like results for QPLEVKNNSNLQRMGSSESTDSGF [CDC25A] were, in that order, 5.28 ± 0.23 and 5.06 ± 0.49.
Consider QPPLSATVTLTVAVADSIPQVLAD [PCDHGA10], for which the protein stability index was found to be 2.56 ± 0.24 (treatment: DMSO) and 2.7 ± 0.36 (treatment: MLN4924 1 uM, 8 h).
The like results for QQAMSLAILRVIRLVRVFRIFKLS [KCNA3] were, in that order, 2.69 ± 0.26 and 2.63 ± 0.44.
For QQEVVVAGSSLPTSSKVNATVPSN [ACBD3], in that order: 5.12 ± 0.34 and 4.98 ± 0.23.
For QQIEEQRVQVQVVERAQQVAVQEQ [FLOT1], in that order: 5.17 ± 0.41 and 5.03 ± 0.32.
For QQVDTNISVILPTVHEVDIFRCFC [DENND6A], the protein stability index was found to be 1.98 ± 0.31 (treatment: DMSO) and 2.24 ± 0.47 (treatment: MLN4924 1 uM, 8 h).
For QRKKWVDLAWMITFYVRFFLTYVP [FADS1], the protein stability index runs as follows: (treatment: DMSO) 2.79 ± 0.29; (treatment: MLN4924 1 uM, 8 h) 2.83 ± 0.44.
For QRLLFSGASDNSIIMWDIGGRKGR [WDFY1], in that order: 3.16 ± 0.55 and 3.39 ± 0.46.
For QSLLQPKSSSVDSELTSLCQSVLE [SMG5], in that order: 3.88 ± 0.26 and 3.94 ± 0.21.
The like results for QSPTLEFLLRNSQRTVGQLMELCR [EDARADD] were, in that order, 2.49 ± 0.21 and 2.56 ± 0.26.
As to QTEKLDTNITEVDAASVYTLPAGA [CASP6], the protein stability index is 5.02 ± 0.2 (treatment: DMSO) and 4.81 ± 0.12 (treatment: MLN4924 1 uM, 8 h).
Take QTEPQDRSPAPMSCDKSTQTPSPP [BCL2L11]: the protein stability index reads like this: (treatment: DMSO) 5.58 ± 0.14; (treatment: MLN4924 1 uM, 8 h) 5.38 ± 0.23.
The like results for QTPEQYYFCYKAILEFAEKEGMVS [PTPN9] were, in that order, 2.12 ± 0.47 and 2.22 ± 0.35.
